One molecule from paper PMC5521201 can be followed below.

In this data set the target is T1, CTCF (UniProt P49711 1-727).
T1 sequence: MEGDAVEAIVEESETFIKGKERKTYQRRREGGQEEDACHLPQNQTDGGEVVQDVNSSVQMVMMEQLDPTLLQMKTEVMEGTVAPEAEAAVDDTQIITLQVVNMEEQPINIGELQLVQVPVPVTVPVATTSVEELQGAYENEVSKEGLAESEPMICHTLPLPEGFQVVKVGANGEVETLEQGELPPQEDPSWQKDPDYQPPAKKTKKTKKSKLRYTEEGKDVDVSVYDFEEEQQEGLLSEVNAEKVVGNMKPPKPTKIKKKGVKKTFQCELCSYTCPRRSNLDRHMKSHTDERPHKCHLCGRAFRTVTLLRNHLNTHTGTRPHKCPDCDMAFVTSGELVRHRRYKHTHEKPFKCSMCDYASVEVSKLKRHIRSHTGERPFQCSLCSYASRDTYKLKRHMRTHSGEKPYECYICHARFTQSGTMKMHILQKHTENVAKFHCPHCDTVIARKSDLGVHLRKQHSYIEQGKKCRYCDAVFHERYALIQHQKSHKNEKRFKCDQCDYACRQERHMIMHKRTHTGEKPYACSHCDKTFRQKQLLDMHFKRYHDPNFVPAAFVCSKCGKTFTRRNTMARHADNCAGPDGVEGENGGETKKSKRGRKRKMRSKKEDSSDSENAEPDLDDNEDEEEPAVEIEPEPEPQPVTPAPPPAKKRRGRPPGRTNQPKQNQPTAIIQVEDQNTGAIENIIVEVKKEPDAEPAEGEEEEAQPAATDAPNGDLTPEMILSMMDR
Briefly: EMSA. For orientation: A gel shift assay detects complexes by their altered migration in electrophoresis.

B1: CTCF WT (BZLF1 promoter CTCF site) (dsDNA)
DNA 1: TCGTCCAAATGGCCACGAGGGGGCGGGTGGCTCAGGTC
DNA 2: GACCTGAGCCACCCGCCCCCTCGTGGCCATTTGGACGA
As to B1, the binding result is “binds”.
